Results taken from patent publication US20110189164A1, “Peptide Stabilizer Compounds and Screening Method” (Isogenica Ltd, priority 2005, published 2011).

Assays:
trypsin = target: T1, trypsin (Bos taurus, UniProt P00760); assay: Incubation with trypsin-agarose, then ELISA against anti-FLAG antibody (trypsin resistance); type: in vitro ADME; settings: two hours at 25° C.
T1 construct: purchased SIGMA-Aldrich or Novagen
T1 sequence (P00760 24-246): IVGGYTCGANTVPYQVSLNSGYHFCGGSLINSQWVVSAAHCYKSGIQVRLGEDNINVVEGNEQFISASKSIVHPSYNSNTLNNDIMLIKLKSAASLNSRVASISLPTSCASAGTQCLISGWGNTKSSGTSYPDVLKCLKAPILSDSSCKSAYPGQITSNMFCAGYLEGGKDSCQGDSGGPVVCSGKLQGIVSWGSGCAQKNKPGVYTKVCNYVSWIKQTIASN
Method: A. Unselected library peptides incubated with trypsin. B. Unselected library peptides incubated without trypsin. C. Round five thrombin selection peptides incubated with trypsin. D. Round five thrombin selection peptides incubated without trypsin.
Trypsin cleaves after R or after K, thus there are two trypsin sites fixed in the FLAG epitope and thrombin substrate sequence. Even partial resistance to trypsin is surprising as no selection for trypsin resistance was performed and the FLAG epitope is susceptible to trypsin cleavage. Such resistance is observed in round five peptides selected for thrombin resistance, but not in the un-selected library peptides (FIG. 3).

Human Thrombin = Human Thrombin (Homo sapiens, UniProt P00734); settings: fifth round selected peptides; 1 hour incubation +/- Human Thrombin 0.1 unit/ml; anti-FLAG ELISA OD450
Method: The values represent ((OD450 nm reading after incubation with thrombin)/(OD450 nm reading after incubation without thrombin)) expressed as a percentage. 100% indicates complete protection from thrombin cleavage.
Recovered DNA from the fifth round of selection was amplified using PCR, purified and digested with NotI and NcoI. The DNA was then ligated into a similarly digested M13 gpIII phagemid vector and transformed into E. coli XL-1 blue cells, and plated on 2% glucose, 2×TY, 100 μg/ml ampicillin plates. Individual colonies were grown for the production of phage particles as previously described (Odegrip et al Proc. Natl. Acad. Sci USA 101 2806-2810 (2004)). NUNC Maxisorp plates were coated with 100 ng/well of anti-FLAG M2 antibody in PBS overnight at 4° C. ELISA assays were performed with bound phage being incubated for 1 hour in 2% BSA in PBS, +/−Human Thrombin (0.1 unit/ml). The assay was developed with SureBlue TMB peroxidase substrate (Insight Biotechnology, Middlesex, UK) and read at 450 nm.

Sequence	Trypsin resistant (trypsin)	Thrombin resistant (Human Thrombin)
HCVHEPQTKHES [SEQID 029]	resistant	resistant
HGHSPSDNANTR [SEQID 028]	resistant	resistant
ITPPDNSHTPDE [SEQID 027]	resistant	resistant
PSCPNKQDPTHD [SEQID 030]	resistant	resistant
